Assay results as given in US20230330222A1 (ASCENDO BIOTECHNOLOGY, published 2023).
Values belong to the binder of their own block, whether it stands above or below them.

B3: recombinant TREML1 ECD (human TREM-like transcript-1 extracellular domain) (ligand)
chain: QGIVGSLPEVLQAPVGSSILVQCHYRLQDVKAQKVWCRFLPEGCQPLVSSAVDRRAPAGRRTFLTDLGGGLLQVEMVTLQEEDAGEYGCMVDGARGPQILHRVSLNILPPEEEEETHKIGSLAENAFSDPAGSANPLEPSQDEKSIP
notes: Expressed in E. coli from pET30-TREML1 and purified on Ni-NTA; also called hTREML1; not shown: N-terminal polyhistidine tag from pET30
B4: recombinant human MD2 protein (receptor, UniProt Q9Y6Y9 19-160, looked up)
chain: QKQYWVCNSSDASISYTYCDKMQYPISINVNPCIELKRSKGLLHIFYIPRRDLKQLYFNLYITVNTMNLPKRKEVICRGSDDDYSFCRALKGETVNTTISFSFKGIKFSKGKYKCVVEAISGSPEEMLFCLEFVILHQPNSN
notes: also called hMD2; LY96

Tests used:
[1] = biological target: T1, recombinant mouse MD2 protein (mouse, UniProt Q9JHF9 19-160); experiment: solid phase binding assay, mTREML1 stalk coated, anti-His-HRP detection
T1 construct: also called mMD2
T1 sequence (looked up): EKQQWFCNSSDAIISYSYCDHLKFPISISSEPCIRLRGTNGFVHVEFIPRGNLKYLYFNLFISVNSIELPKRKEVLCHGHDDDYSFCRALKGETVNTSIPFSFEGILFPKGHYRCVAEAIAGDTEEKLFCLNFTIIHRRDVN
Method: (§1) For TREML1 or mTREML1 stalk binding to human or mouse MD2 protein, TREML1 stalk or mTREML1 stalk (5 ug/ml in PBS) was coated separately on a 96-well plate. Recombinant hTLR4, hMD2, hCD14, or mMD2 was each serially diluted and added to the plates. Anti-His tag antibody-HRP was used as a detection antibody to detect the protein binding.

[2] = biological target: B4; experiment: solid phase binding assay, TREML1 stalk coated, anti-His-HRP detection
Method: as §1

[3] = biological target: T2, recombinant TLR4 (toll-like receptor 4) (human, UniProt O00206 24-631, limits assumed); experiment: solid phase binding assay, TREML1 stalk coated at 5 ug/ml, anti-His-HRP detection
T2 construct: also called hTLR4
T2 sequence (O00206 24-631 limits assumed): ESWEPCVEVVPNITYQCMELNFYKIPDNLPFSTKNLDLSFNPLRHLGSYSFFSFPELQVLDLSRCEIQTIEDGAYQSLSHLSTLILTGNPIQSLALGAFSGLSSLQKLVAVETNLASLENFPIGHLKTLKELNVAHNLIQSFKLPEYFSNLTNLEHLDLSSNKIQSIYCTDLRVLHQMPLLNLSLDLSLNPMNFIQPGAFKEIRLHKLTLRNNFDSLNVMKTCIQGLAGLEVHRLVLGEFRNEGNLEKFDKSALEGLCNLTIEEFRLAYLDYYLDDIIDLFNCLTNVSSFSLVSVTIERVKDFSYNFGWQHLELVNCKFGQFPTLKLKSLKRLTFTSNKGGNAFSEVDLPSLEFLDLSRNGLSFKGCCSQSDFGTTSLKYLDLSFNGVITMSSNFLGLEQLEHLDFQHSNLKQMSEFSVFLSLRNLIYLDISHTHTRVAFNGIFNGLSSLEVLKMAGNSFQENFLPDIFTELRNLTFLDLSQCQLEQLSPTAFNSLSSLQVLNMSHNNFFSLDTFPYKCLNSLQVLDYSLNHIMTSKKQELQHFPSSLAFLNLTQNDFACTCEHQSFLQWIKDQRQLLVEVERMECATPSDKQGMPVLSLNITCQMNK
Method: as §1

recombinant CD14 [4] = biological target: T3, recombinant CD14 (human, UniProt P08571 20-352, limits assumed); experiment: as above
T3 construct: also called hCD14
T3 sequence (looked up): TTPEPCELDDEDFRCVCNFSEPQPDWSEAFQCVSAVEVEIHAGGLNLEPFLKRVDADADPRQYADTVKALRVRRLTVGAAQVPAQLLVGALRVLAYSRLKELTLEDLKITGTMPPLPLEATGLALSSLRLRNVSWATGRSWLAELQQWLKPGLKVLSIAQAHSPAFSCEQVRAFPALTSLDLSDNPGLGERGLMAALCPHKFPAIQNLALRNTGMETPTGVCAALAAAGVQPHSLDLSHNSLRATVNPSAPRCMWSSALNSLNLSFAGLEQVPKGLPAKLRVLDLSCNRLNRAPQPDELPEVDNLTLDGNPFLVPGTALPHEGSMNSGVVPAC
Method: as §1

recombinant CD14 [5] = biological target: T3, recombinant CD14; experiment: solid phase binding assay, CD14 coated at 5 ug/ml
Method: (§2) To identify potential binding partners of TREML1 ECD, we used solid phase binding assay to assess interactions between TREML1 ECD and candidate proteins. Briefly, various candidate proteins and BSA (as a negative control) were coated on a 96-well plate and TREML1 ECD at various concentrations were added to the wells. After binding and washing, an anti-TREML1 antibody conjugated with horse radish peroxidase (HRP) was added to each well. After washing, HRP substrate, TMB (3,3′,5,5′-tetramethylbenzidine), was added. After reaction, absorbance at 450 nm was measured to assess TREML1 binding. An exemplary set of results is shown in FIG. 2, in which recombinant TREML1 ECD binds MD2 and TLR4 in a concentration-dependent manner.
(§3) To investigate the protein-protein interactions. Recombinant TLR4 (5 ug/ml in PBS), MD2 (5 ug/ml in PBS), CD14 (5 ug/ml in PBS), and BSA (negative control) proteins were plated separately on 96-well plates and incubated overnight at 4 degrees Celsius. The blocking buffer (2% BSA in PBS) was added to avoid the nonspecific binding for 2 hr at room temperature. A serial diluted TREML1 ECD (2.5 ug/ml to 156 ng/ml, 2-fold dilutions) solutions were added and allowed to incubate at room temperature for 2 hr. Then, anti-TREML1 antibody (1 ug/ml in PBS) was added for 1 hr. […] Absorbance at OD450/540 nm was measured with a microplate reader.

BSA (negative control) = BSA (negative control) (UniProt P02769 25-607); experiment: solid phase binding assay, BSA coated as negative control
Sequence of BSA (negative control) (P02769 25-607 limits assumed): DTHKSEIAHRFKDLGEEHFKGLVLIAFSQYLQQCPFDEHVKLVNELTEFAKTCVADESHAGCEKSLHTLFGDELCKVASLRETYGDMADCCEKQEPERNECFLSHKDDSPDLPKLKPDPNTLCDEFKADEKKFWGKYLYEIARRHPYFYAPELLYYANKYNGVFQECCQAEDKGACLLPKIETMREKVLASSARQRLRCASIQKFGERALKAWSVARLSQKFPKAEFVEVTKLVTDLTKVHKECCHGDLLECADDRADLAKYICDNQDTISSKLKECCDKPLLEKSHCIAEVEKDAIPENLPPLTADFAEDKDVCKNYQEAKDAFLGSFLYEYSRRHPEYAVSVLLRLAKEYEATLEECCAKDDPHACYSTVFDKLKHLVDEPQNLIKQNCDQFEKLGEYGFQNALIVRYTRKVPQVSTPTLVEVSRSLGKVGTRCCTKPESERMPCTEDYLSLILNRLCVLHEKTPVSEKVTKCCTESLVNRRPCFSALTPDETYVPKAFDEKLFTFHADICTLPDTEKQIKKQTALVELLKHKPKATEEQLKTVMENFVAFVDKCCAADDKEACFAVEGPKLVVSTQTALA
Method: as §2, §3

[6] = biological target: B3; experiment: solid phase binding assay, MD2 coated
Method: as §2, §3

Binder: B3
- binding result (recombinant CD14 [5]): no binding (tested: 2.5 ug/ml to 156 ng/ml TREML1 ECD)
- binding result (BSA (negative control)): no binding (tested: 2.5 ug/ml to 156 ng/ml TREML1 ECD)

Binder: B4
- binding result [6]: binds

Now from value to binder:

- binding result [1]: binds
B1: mTREML1 stalk polypeptide (mouse) (peptide)
peptide: EGEEAEDEKETYRIGTGSLLEDPSLDPSASAGPHEFRRRENSIP
notes: also called mouse TREML1 stalk

- binding result [2]: binds
- binding result [3]: no binding
- binding result (recombinant CD14 [4]): no binding
B2: TREML1 stalk polypeptide (human) (peptide)
peptide: ILPPEEEEETHKIGSLAENAFSDPAGSANPLEPSQDEKSIP
